The target in experiment [1] is Senecavirus A (SVA) particles (Senecavirus A). Description: ELISA, coated SVA, Fc control.
Experiment [2] addresses Foot-and-Mouth Disease Virus (FMDV) particles (Foot-and-Mouth Disease Virus). Put plainly: ELISA, coated FMDV, Fc control. On the technique in general: In an ELISA, binding on a coated surface is turned into a signal by an enzyme label.

Take Fc: the A450 in experiment [1] is 0.218 A450; in experiment [2], 0.054 A450.

These data come from patent US20250074971A1.
